Patent publication US12612465B2, “Formulations comprising PCSK9 specific monoclonal antibodies” (Amgen Inc., priority 2012, dated 2026)

How the values were obtained:
[1] = target: T1, PCSK9 (Homo sapiens, UniProt Q8NBP7); experiment: 12 week dose-ranging study in combination with statins (Example 25); assay type: in vivo; conditions: on statin, preliminary
T1 construct: endogenous in cells; host or cells: human subjects, in vivo
Description: Randomization will be stratified by screening LDL-C level (<130 mg/dL [3.4 mmol/L] vs ≥130 mg/dL) and ezetimibe use at baseline (yes vs no). Randomization should occur within 5-10 days of the screening LDL-C evaluation used to determine eligibility. Study visits are every 2 weeks, irrespective whether the subject receives Q2W SC or Q4W treatment. […] The end-of-study visit and the last estimation of lipids is at week 12 for subjects on Q4W IP schedule and week 14 for subjects on Q2W IP schedule.
Males and females, ≥18 to ≤80 years of age, are eligible for this study. For enrollment,
subjects must be on a statin, with or without ezetimibe, with stable dose(s) for at least 4 weeks before LDL-C screening and not requiring uptitration. Fasting LDL-C at screening must be ≥85 mg/dL (2.2 mmol/L). Enrollment of subjects with screening fasting LDL-C between ≥85 mg/dL (2.2 mmol/L) and <100 mg/dL (2.6 mmol/L) will be limited to no more than approximately 20% of total planned enrollment. Fasting triglycerides must be ≤400 mg/dL (4.5 mmol/L) as determined by the central laboratory analysis at screening.

[2] = target: T1, PCSK9; experiment: 12 week study in hypercholesterolemic patients unable to tolerate a statin (Example 23); assay type: in vivo; conditions: statin-intolerant, preliminary
Description: It is planned to enroll 150 subjects. […] Randomization will be stratified by screening LDL-C level (<130 mg/dL [3.4 mmol/L] vs ≥130 mg/dL) and statin use at baseline (yes vs no). Randomization should occur within 5-10 days of the screening LDL-C evaluation used to determine eligibility. Monoclonal antibody, 21B12, and placebo will be blinded. Ezetimibe is not blinded. Study visits are at weeks 2, 4, 8, and 12. […] The end-of-study visit and the last evaluation of lipids is at week 12.
Males and females, ≥18 to ≤75 years of age, are eligible for this study. Subject must have tried at least 1 statin and have been unable to tolerate any dose or an increase in statin dose above the following total weekly maximum doses due to myalgia or myopathy: atorvastatin ≤70 mg, simvastatin ≤140 mg, pravastatin ≤140 mg, rosuvastatin ≤35 mg, lovastatin ≤140 mg, fluvastatin ≤280 mg. For unlisted statins, the maximal total weekly dose should not exceed 7 times the smallest available tablet size. Symptoms must have resolved when statin was discontinued or the dose reduced. If receiving statin (not exceeding the maximal dose defined above), bile-acid sequestering resin, and/or stanol therapy, the dose(s) must be stable for at least 4 weeks prior to LDL-C screening. If the subject is on ezetimibe at start of screening, ezetimibe must be discontinued for ≥4 weeks before LDL-C screening. Depending on their risk category (based on NCEP ATP III treatment goals) subjects must meet the following fasting LDL-C (by central laboratory) criteria at screening: ≥100 mg/dL (2.6 mmol/L) for subjects with diagnosed coronary heart disease (CHD) or CHD risk equivalent; ≥130 mg/dL (3.4 mmol/L) for subjects without diagnosed CHD or risk equivalent and 2 or more risk factors; ≥160 mg/dL (4.1 mmol/L) for subjects without diagnosed CHD or risk equivalent and with 1 or no risk factors. Fasting triglycerides must be ≤400 mg/dL (4.5 mmol/L) as determined by the central laboratory analysis at screening.

[3] = 70 mg Q2W SC, end of dosing interval
[4] = 105 mg Q2W SC, end of dosing interval
[5] = 280 mg (Q2W as printed) SC, end of dosing interval
[6] = 350 mg (Q2W as printed) SC, end of dosing interval
[7] = 280 mg Q4W SC, end of dosing interval
[8] = 350 mg Q4W SC, end of dosing interval

T1 sequence (Q8NBP7 153-692): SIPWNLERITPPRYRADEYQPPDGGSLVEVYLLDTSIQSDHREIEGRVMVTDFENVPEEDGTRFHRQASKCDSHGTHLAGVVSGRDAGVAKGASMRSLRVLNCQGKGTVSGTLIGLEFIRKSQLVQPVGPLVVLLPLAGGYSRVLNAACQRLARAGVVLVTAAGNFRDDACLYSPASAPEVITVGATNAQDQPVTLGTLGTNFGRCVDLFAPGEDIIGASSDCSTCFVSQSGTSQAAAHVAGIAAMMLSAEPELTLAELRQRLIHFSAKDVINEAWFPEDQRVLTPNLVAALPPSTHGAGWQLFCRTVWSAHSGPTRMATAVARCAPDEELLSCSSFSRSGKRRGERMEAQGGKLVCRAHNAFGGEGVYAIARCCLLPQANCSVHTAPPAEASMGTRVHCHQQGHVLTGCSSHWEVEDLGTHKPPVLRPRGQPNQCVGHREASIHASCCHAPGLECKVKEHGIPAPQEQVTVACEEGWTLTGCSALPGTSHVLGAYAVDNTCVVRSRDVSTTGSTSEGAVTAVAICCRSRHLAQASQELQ

LS mean percent increase from baseline in HDL-C [1, 3]: 21.17% | LS mean percent reduction from baseline in LDL-C [1, 3]: 39.22% | LS mean percent reduction from baseline in Lp(a) [1, 3]: 21.17% | LS mean percent reduction from baseline in VLDL-C [1, 3]: 14.84% | LS mean percent reduction from baseline in non-HDL-C [1, 3]: 36.20% | LS mean percent reduction from baseline in total cholesterol [1, 3]: 26.33% | LS mean percent reduction from baseline in triglycerides [1, 3]: 7.20% | LS mean percent increase from baseline in HDL-C [1, 4]: 6.80% | LS mean percent reduction from baseline in LDL-C [1, 4]: 56.38% | LS mean percent reduction from baseline in Lp(a) [1, 4]: 33.41% | LS mean percent reduction from baseline in VLDL-C [1, 4]: 12.75% | LS mean percent reduction from baseline in non-HDL-C [1, 4]: 51.20% | LS mean percent reduction from baseline in total cholesterol [1, 4]: 36.91% | LS mean percent reduction from baseline in triglycerides [1, 4]: 5.65% | LS mean percent increase from baseline in HDL-C ([1]; 140 mg Q2W SC): 8.43% | LS mean percent reduction from baseline in LDL-C ([1]; 140 mg Q2W SC): 68.76% | LS mean percent reduction from baseline in Lp(a) ([1]; 140 mg Q2W SC): 33.87% | LS mean percent reduction from baseline in VLDL-C ([1]; 140 mg Q2W SC): 45.14% | LS mean percent reduction from baseline in non-HDL-C ([1]; 140 mg Q2W SC): 64.61% | LS mean percent reduction from baseline in total cholesterol ([1]; 140 mg Q2W SC): 46.17% | LS mean percent reduction from baseline in triglycerides ([1]; 140 mg Q2W SC): 17.60% | LS mean percent increase from baseline in HDL-C [1, 5]: 2.17% | LS mean percent reduction from baseline in Lp(a) [1, 5]: 22.54% | LS mean percent reduction from baseline in VLDL-C [1, 5]: 18.12% | LS mean percent reduction from baseline in non-HDL-C [1, 5]: 38.89% | LS mean percent reduction from baseline in total cholesterol [1, 5]: 28.08% | LS mean percent reduction from baseline in triglycerides [1, 5]: 6.75% | LS mean percent reduction from baseline in LDL-C ([1]; 280 mg (Q4W) SC, end of dosing interval): 42.62% | LS mean percent increase from baseline in HDL-C [1, 6]: 6.92% | LS mean percent reduction from baseline in Lp(a) [1, 6]: 29.43% | LS mean percent reduction from baseline in VLDL-C [1, 6]: 20.89% | LS mean percent reduction from baseline in non-HDL-C [1, 6]: 50.83% | LS mean percent reduction from baseline in total cholesterol [1, 6]: 36.04% | LS mean percent reduction from baseline in triglycerides [1, 6]: 9.17% | LS mean percent reduction from baseline in LDL-C ([1]; 350 mg SC, end of dosing interval): 56.84% | LS mean percent increase from baseline in HDL-C ([1]; 420 mg (Q2W as printed) SC): 7.42% | LS mean percent reduction from baseline in Lp(a) ([1]; 420 mg (Q2W as printed) SC): 23.29% | LS mean percent reduction from baseline in VLDL-C ([1]; 420 mg (Q2W as printed) SC): 28.66% | LS mean percent reduction from baseline in non-HDL-C ([1]; 420 mg (Q2W as printed) SC): 48.54% | LS mean percent reduction from baseline in total cholesterol ([1]; 420 mg (Q2W as printed) SC): 42.76% | LS mean percent reduction from baseline in triglycerides ([1]; 420 mg (Q2W as printed) SC): 11.13% | LS mean percent reduction from baseline in LDL-C ([1]; 420 mg SC): 52.19%
B1: 21B12: human anti-PCSK9 monoclonal antibody, light/heavy variable region SEQ ID NO 23/49 (antibody, listed as Homo sapiens, V domains shown)
VH: QVQLVQSGAEVKKPGASVKVSCKASGYTLTSYGISWVRQAPGQGLEWMGWVSFYNGNTNYAQKLQGRGTMTTDPSTSTAYMELRSLRSDDTAVYYCARGYGMDVWGQGTTVTVSS
VL: QSALTQPASVSGSPGQSITISCTGTSSDVGGYNSVSWYQQHPGKAPKLMIYEVSNRPSGVSNRFSGSKSGNTASLTISGLQAEDEADYYCNSYTSTSMVFGGGTKLTVL
LS mean percent increase from baseline in HDL-C [2, 7]: 8.62% | LS mean percent reduction from baseline in LDL-C [2, 7]: 38.79% | LS mean percent reduction from baseline in Lp(a) [2, 7]: 27.38% | LS mean percent reduction from baseline in VLDL-C [2, 7]: 31.02% | LS mean percent reduction from baseline in non-HDL-C [2, 7]: 39.92% | LS mean percent reduction from baseline in total cholesterol [2, 7]: 31.03% | LS mean percent reduction from baseline in triglycerides [2, 7]: 15.35% | LS mean percent increase from baseline in HDL-C [2, 8]: 4.62% | LS mean percent reduction from baseline in LDL-C [2, 8]: 40.01% | LS mean percent reduction from baseline in Lp(a) [2, 8]: 16.04% | LS mean percent reduction from baseline in VLDL-C [2, 8]: 38.14% | LS mean percent reduction from baseline in non-HDL-C [2, 8]: 42.86% | LS mean percent reduction from baseline in total cholesterol [2, 8]: 34.46% | LS mean percent reduction from baseline in triglycerides [2, 8]: 19.22% | LS mean percent increase from baseline in HDL-C ([2]; 420 mg Q4W SC): 7.55% | LS mean percent reduction from baseline in LDL-C ([2]; 420 mg Q4W SC): 50.63% | LS mean percent reduction from baseline in Lp(a) ([2]; 420 mg Q4W SC): 23.84% | LS mean percent reduction from baseline in VLDL-C ([2]; 420 mg Q4W SC): 37.27% | LS mean percent reduction from baseline in non-HDL-C ([2]; 420 mg Q4W SC): 53.49% | LS mean percent reduction from baseline in total cholesterol ([2]; 420 mg Q4W SC): 42.23% | LS mean percent reduction from baseline in triglycerides ([2]; 420 mg Q4W SC): 19.55%
